Laboratory results: article PMC3685266

How the values were obtained:
SecY_(268Fl)EG (E. coli) [1] = target: SecY_(268Fl)EG (E. coli) (UniProt P0AGA2); test: other fluorescence titration; fluorescence quench of 5 nM SecY_(268Fl)EG, 1 mM p[NH]ppA, 20 mM Tris/HCl pH 8, 130 mM NaCl, 10% glycerol, 2 mM MgCl2, 0.03% C12E9; SecA titrated 0-1 μM; no DTT; one-site fit with linear phase
SecY_(268Fl)EG (E. coli) [2] = target: SecY_(268Fl)EG (E. coli) (UniProt P0AGA2); test: other fluorescence titration; fluorescence quench of 5 nM SecY_(268Fl)EG, 1 mM p[NH]ppA, 20 mM Tris/HCl pH 8, 130 mM NaCl, 10% glycerol, 2 mM MgCl2, 0.03% C12E9; SecA titrated 0-1 μM; with 10 mM DTT; one-site fit with linear phase
[3] = target: SecA_(D337C/E806C), uncross-linked, clamp released from the open state with 10 mM DTT (E. coli) (UniProt P10408); test: SEC; Superose 6 10/300 GL, 20 mM Tris/HCl pH 7.5, 100 mM KCl, with or without 10 mM DTT; column calibrated with gel-filtration standards
[4] = target: SecA_(D337C/K482C), uncross-linked, clamp released from the closed state with 10 mM DTT (E. coli) (UniProt P10408); test: as above
[5] = target: SecA_(Δcys), SecA without cysteine residues (E. coli) (UniProt P10408); test: as above
[6] = target: SecA_(D337C/E806C), cross-linked (clamp open) (E. coli) (UniProt P10408); test: steady-state ATPase activity titration; 80 nM SecA in TKM buffer, 1 mM ATP, increasing vesicles reconstituted with purified SecYEG; without proOmpA; no DTT; Kd from a ligand-binding fit
[7] = target: SecA_(D337C/K482C), cross-linked (clamp closed) (E. coli) (UniProt P10408); test: as above
SecA_(Δcys) (E. coli) [8] = target: SecA_(Δcys) (E. coli) (UniProt P10408); test: as above
[9] = target: SecA_(D337C/E806C), cross-linked (clamp open) (E. coli) (UniProt P10408); test: steady-state ATPase activity titration; 0.15 μM SecA in TKM buffer (pH 7.5), 1 mM ATP, 0.03% C12E9, 25°C, increasing detergent-solubilised SecYEG; no DTT; apparent Kd from a ligand-binding fit
[10] = target: SecA_(D337C/K482C), cross-linked (clamp closed) (E. coli) (UniProt P10408); test: as above
SecA_(Δcys) (E. coli) [11] = target: SecA_(Δcys) (E. coli) (UniProt P10408); test: as above
[12] = target: SecA_(D337C/E806C), released with 10 mM DTT (E. coli) (UniProt P10408); test: steady-state ATPase activity titration; 80 nM SecA in TKM buffer, 1 mM ATP, increasing vesicles reconstituted with purified SecYEG; without proOmpA; with 10 mM DTT; Kd from a ligand-binding fit
[13] = target: SecA_(D337C/K482C), released with 10 mM DTT (E. coli) (UniProt P10408); test: as above
SecA_(Δcys) (E. coli) [14] = target: SecA_(Δcys) (E. coli) (UniProt P10408); test: as above
[15] = target: SecA_(D337C/E806C), released with 10 mM DTT (E. coli) (UniProt P10408); test: steady-state ATPase activity titration; 0.15 μM SecA in TKM buffer (pH 7.5), 1 mM ATP, 0.03% C12E9, 25°C, increasing detergent-solubilised SecYEG; with 10 mM DTT; apparent Kd from a ligand-binding fit
[16] = target: SecA_(D337C/K482C), released with 10 mM DTT (E. coli) (UniProt P10408); test: as above
SecA_(Δcys) (E. coli) [17] = target: SecA_(Δcys) (E. coli) (UniProt P10408); test: as above
SecA_(Δcys) (E. coli) [18] = target: SecA_(Δcys) (E. coli) (UniProt P10408); test: steady-state ATPase activity titration; 0.15 μM SecA in TKM buffer, 1 mM ATP, increasing detergent-solubilised SecYEG, in the presence of 40 μM cardiolipin (CL); no DTT; apparent Kd from a ligand-binding fit
[19] = target: SecA_(D337C/E806C), cross-linked (clamp open) (E. coli) (UniProt P10408); test: steady-state ATPase activity titration; 80 nM SecA in TKM buffer, 1 mM ATP, increasing vesicles reconstituted with purified SecYEG; in the presence of 0.6 μM proOmpA_(Δcys); no DTT; Kd from a ligand-binding fit
[20] = target: SecA_(D337C/K482C), cross-linked (clamp closed) (E. coli) (UniProt P10408); test: as above
SecA_(Δcys) (E. coli) [21] = target: SecA_(Δcys) (E. coli) (UniProt P10408); test: as above
[22] = target: SecA_(D337C/E806C), released with 10 mM DTT (E. coli) (UniProt P10408); test: steady-state ATPase activity titration; 0.15 μM SecA in TKM buffer, 1 mM ATP, increasing detergent-solubilised SecYEG, in the presence of 40 μM cardiolipin (CL); with 10 mM DTT; apparent Kd from a ligand-binding fit
[23] = target: SecA_(D337C/K482C), released with 10 mM DTT (E. coli) (UniProt P10408); test: as above
SecA_(Δcys) (E. coli) [24] = target: SecA_(Δcys) (E. coli) (UniProt P10408); test: as above
[25] = target: SecA_(D337C/E806C), released with 10 mM DTT (E. coli) (UniProt P10408); test: steady-state ATPase activity titration; 80 nM SecA in TKM buffer, 1 mM ATP, increasing vesicles reconstituted with purified SecYEG; in the presence of 0.6 μM proOmpA_(Δcys); with 10 mM DTT; Kd from a ligand-binding fit
[26] = target: SecA_(D337C/K482C), released with 10 mM DTT (E. coli) (UniProt P10408); test: as above
SecA_(Δcys) (E. coli) [27] = target: SecA_(Δcys) (E. coli) (UniProt P10408); test: as above
[28] = target: preformed SecA_(Δcys)–SecYEG membrane-bound complex (E. coli) (UniProt P10408); test: steady-state ATPase activity titration; 80 nM SecA with 1.08 μM SecYEG reconstituted into E. coli polar lipids in TKM buffer, 1 mM ATP, increasing purified proOmpA_(Δcys); no DTT; Kd from a ligand-binding fit
[29] = target: preformed SecA_(D337C/E806C) (released with DTT)–SecYEG membrane-bound complex (E. coli) (UniProt P10408); test: steady-state ATPase activity titration; 80 nM SecA with 1.08 μM SecYEG reconstituted into E. coli polar lipids in TKM buffer, 1 mM ATP, increasing purified proOmpA_(Δcys); with 10 mM DTT; Kd from a ligand-binding fit
[30] = target: preformed SecA_(D337C/K482C) (released with DTT)–SecYEG membrane-bound complex (E. coli) (UniProt P10408); test: as above
[31] = target: preformed SecA_(Δcys)–SecYEG membrane-bound complex (E. coli) (UniProt P10408); test: as above

Substance: SecA_(D337C/E806C), cross-linked (clamp open) (from UniProt P10408 1-901) (enzyme)
- Kd (SecY_(268Fl)EG (E. coli) [1]): 60.9 nM

Substance: SecA_(D337C/E806C), released with 10 mM DTT (from UniProt P10408 1-901) (enzyme)
- Kd (SecY_(268Fl)EG (E. coli) [2]): 59.5 nM

Substance: SecA_(D337C/E806C), uncross-linked, clamp released from the open state with 10 mM DTT (from UniProt P10408 1-901) (enzyme)
- stoichiometry N [3]: 2

Substance: SecA_(D337C/K482C), cross-linked (clamp closed) (from UniProt P10408 1-901) (enzyme)
- Kd (SecY_(268Fl)EG (E. coli) [1]): 28.6 nM

Substance: SecA_(D337C/K482C), released with 10 mM DTT (from UniProt P10408 1-901) (enzyme)
- Kd (SecY_(268Fl)EG (E. coli) [2]): 118 nM

Substance: SecA_(D337C/K482C), uncross-linked, clamp released from the closed state with 10 mM DTT (from UniProt P10408 1-901) (enzyme)
- stoichiometry N [4]: 2

Substance: SecA_(Δcys) (from UniProt P10408 1-901) (enzyme)
- Kd (SecY_(268Fl)EG (E. coli) [1]): 18.4 nM
- Kd (SecY_(268Fl)EG (E. coli) [2]): 20.6 nM

Substance: SecA_(Δcys), SecA without cysteine residues (from UniProt P10408 1-901) (enzyme)
- stoichiometry N [5]: 2

Substance: SecYEG (from UniProt P0AGA2 1-443; P0AG96 1-127; P0AG99 1-110) (complex)
- Kd [6]: 650 nM
- Kd [7]: 29 nM
- Kd (SecA_(Δcys) (E. coli) [8]): 1130 nM
- Kd [9]: 5900 nM
- Kd [10]: 15 nM
- Kd (SecA_(Δcys) (E. coli) [11]): 7600 nM
- Kd [12]: 650 nM
- Kd [13]: 340 nM
- Kd (SecA_(Δcys) (E. coli) [14]): 1110 nM
- Kd [15]: 6000 nM
- Kd [16]: 6300 nM
- Kd (SecA_(Δcys) (E. coli) [17]): 7800 nM
- Kd (SecA_(Δcys) (E. coli) [18]): 3.7 nM
- Kd [19]: 170 nM
- Kd [20]: 25 nM
- Kd (SecA_(Δcys) (E. coli) [21]): 260 nM
- Kd [22]: 6.5 nM
- Kd [23]: 8.8 nM
- Kd (SecA_(Δcys) (E. coli) [24]): 5.6 nM
- Kd [25]: 130 nM
- Kd [26]: 130 nM
- Kd (SecA_(Δcys) (E. coli) [27]): 190 nM

Substance: proOmpA_(Δcys) (from UniProt P0A910 22-346) (natural protein)
- Kd [28]: 500 nM
- Kd [29]: 350 nM
- Kd [30]: 240 nM
- Kd [31]: 780 nM
